# From patent US7285654 (SIGNAL PHARMACEUTICALS, dated 2007)
# Square brackets hold non-standard residues; d marks the D form. Ends that are not written are not given here. pS = N[C@@H](COP(=O)(O)O)C(=O)O
# Biological target: IKK signalsome (stimulus-inducible IκB kinase complex) immunopurified from TNFα-stimulated HeLa cells (human)
# Assay: product inhibition of immunopurified IKK signalsome; 32P incorporation into GST-IκBα (1-54), TCA precipitation, Dixon analysis
# IKK signalsome (stimulus-inducible IκB kinase complex) immunopurified from TNFα-stimulated HeLa cells (human), sequence (chain, as listed by the source, chain 1 of 3): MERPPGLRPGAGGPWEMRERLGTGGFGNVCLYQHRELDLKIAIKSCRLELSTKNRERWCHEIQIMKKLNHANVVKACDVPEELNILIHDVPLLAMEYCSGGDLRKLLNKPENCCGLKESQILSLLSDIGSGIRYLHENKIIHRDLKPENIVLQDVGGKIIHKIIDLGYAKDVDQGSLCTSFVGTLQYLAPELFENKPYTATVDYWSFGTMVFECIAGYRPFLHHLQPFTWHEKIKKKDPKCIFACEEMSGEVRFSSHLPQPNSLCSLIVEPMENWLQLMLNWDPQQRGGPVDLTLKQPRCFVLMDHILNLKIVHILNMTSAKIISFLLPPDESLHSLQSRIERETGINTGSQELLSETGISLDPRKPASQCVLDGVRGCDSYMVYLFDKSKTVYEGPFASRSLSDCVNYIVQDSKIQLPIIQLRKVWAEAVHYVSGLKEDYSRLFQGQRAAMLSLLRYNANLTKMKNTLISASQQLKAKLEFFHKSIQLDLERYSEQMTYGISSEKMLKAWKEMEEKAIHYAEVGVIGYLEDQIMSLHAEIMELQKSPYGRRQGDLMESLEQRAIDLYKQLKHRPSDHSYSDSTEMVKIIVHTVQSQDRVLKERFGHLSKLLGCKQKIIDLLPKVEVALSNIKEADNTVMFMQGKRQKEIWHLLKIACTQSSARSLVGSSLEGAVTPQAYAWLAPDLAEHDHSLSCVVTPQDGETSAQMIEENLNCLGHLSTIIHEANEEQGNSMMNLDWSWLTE
# IKK signalsome (stimulus-inducible IκB kinase complex) immunopurified from TNFα-stimulated HeLa cells (human), sequence (chain, as listed by the source, chain 2 of 3): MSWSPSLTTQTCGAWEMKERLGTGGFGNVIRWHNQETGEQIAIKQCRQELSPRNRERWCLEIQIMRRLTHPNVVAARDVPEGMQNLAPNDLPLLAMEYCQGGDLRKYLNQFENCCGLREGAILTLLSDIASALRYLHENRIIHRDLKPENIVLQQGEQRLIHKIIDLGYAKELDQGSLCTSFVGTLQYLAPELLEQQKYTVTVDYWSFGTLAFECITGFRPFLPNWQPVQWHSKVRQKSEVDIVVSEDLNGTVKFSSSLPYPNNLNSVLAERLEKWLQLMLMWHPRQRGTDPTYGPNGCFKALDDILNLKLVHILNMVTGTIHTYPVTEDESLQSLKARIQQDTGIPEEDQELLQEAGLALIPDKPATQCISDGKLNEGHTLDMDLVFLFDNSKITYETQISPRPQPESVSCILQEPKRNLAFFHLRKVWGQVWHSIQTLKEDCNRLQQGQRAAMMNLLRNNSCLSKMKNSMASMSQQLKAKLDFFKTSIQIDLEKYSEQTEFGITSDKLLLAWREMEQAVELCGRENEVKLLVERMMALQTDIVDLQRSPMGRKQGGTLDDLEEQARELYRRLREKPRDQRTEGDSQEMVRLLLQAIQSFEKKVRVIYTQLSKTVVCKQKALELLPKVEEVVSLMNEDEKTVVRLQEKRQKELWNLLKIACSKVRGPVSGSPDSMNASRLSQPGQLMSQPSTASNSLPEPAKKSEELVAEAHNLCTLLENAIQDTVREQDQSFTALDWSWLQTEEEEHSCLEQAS
# IKK signalsome (stimulus-inducible IκB kinase complex) immunopurified from TNFα-stimulated HeLa cells (human), sequence (chain, as listed by the source, chain 3 of 3): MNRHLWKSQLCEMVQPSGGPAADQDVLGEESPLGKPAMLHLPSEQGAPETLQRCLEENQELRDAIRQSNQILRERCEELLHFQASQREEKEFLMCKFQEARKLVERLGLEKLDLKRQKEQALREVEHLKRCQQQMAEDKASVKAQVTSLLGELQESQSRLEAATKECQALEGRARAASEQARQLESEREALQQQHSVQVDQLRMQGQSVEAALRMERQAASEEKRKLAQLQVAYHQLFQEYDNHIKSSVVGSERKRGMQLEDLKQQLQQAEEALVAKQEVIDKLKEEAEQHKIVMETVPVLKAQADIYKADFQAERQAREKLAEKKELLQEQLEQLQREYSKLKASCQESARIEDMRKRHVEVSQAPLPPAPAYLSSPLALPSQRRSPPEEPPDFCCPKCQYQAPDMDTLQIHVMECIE
binder,measurement,value
"CKKERLLDDRHD[pS]GLD[pS]MKDEE (The phosphorylated forms are described as the same peptide chemically phosphorylated; also called P32, 36 peptide)",Ki,14 µM
